Patent publication US20050182242A1, “Global analysis of protein activities using proteome chips” (priority 2001, published 2005)

B1: PEX4: yeast GST-HisX6 fusion protein on proteome chip (protein, UniProt P29340 1-183, looked up)
Ubiquitin-conjugating enzyme …: MPNFWILENRRSYTSDTCMSRIVKEYKVILKTLASDDPIANPYRGIIESLNPIDETDLSKWEAIISGPSDTPYENHQFRILIEVPSSYPMNPPKISFMQNNILHCNVKSATGEICLNILKPEEWTPVWDLLHCVHAVWRLLREPVCDSPLDVDIGNIIRCGDMSAYQGIVKYFLAERERINNH
modifications: GST-His6 tag
notes: yeast GST-HisX6 fusion protein on proteome chip
B2: ARP10: yeast GST-HisX6 fusion protein on proteome chip (protein, UniProt Q04549 1-284, looked up)
Actin-like protein ARP10: MSNTIVIVYLGANRIEIGRSADACPQEIIAWKTGSINEKNREELKKIFEHYFQICNILGNREVQVLILEDIFISVVEKRIICSILFKEFDCAHVSFVPRAIVHCLSCNTRNAIVIDIGTNYTTCVPIFDLRPLQQFIKYSKRGKRQVESRIPLPGSLYMPIFFDEEYNSKNCEVDETPVINLVKNIVESLPIDLRRPLRENIIIVNIEEAYETVIRNLFKLKMDTSKIQFPKNYWQAGSACAKILLHYKGSNIVGIERDEFYNNPHIAPDWFDYYFRTGVKRLQ
modifications: GST-HisX6 tag
notes: as for B1
B3: ROT1: yeast GST-HisX6 fusion protein on proteome chip (protein, UniProt Q03691 25-256, looked up)
Protein ROT1: EDESNSIYGTWSSKSNQVFTGPGFYDPVDELLIEPSLPGLSYSFTEDGWYEEATYQVSGNPRNPTCPMASLIYQHGTYNISENGTLVLNPIEVDGRQLFSDPCNDDGVSTYSRYNQTETFKEYAVGIDPYHGIYTLQLYQYDGTPMQPLYLAYRPPMMLPTETLNPTSSATSTDDPSSNKKRSLRSLVRRSLENRHKTNAIKRQNTSFLTSNAIWYISAGMLGVGSLLFLAF
modifications: GST-His6 tag
notes: as for B1
B4: TAT2: yeast GST-HisX6 fusion protein on proteome chip (protein, UniProt P38967 1-592, looked up)
Tryptophan permease: MTEDFISSVKRSNEELKERKSNFGFVEYKSKQLTSSSSHNSNSSHHDDDNQHGKRNIFQRCVDSFKSPLDGSFDTSNLKRTLKPRHLIMIAIGGSIGTGLFVGSGKAIAEGGPLGVVIGWAIAGSQIIGTIHGLGEITVRFPVVGAFANYGTRFLDPSISFVVSTIYVLQWFFVLPLEIIAAAMTVQYWNSSIDPVIWVAIFYAVIVSINLFGVRGFGEAEFAFSTIKAITVCGFIILCVVLICGGGPDHEFIGAKYWHDPGCLANGFPGVLSVLVVASYSLGGIEMTCLASGETDPKGLPSAIKQVFWRILFFFLISLTLVGFLVPYTNQNLLGGSSVDNSPFVIAIKLHHIKALPSIVNAVILISVLSVGNSCIFASSRTLCSMAHQGLIPWWFGYIDRAGRPLVGIMANSLFGLLAFLVKSGSMSEVFNWLMAIAGLATCIVWLSINLSHIRFRLAMKAQGKSLDELEFVSAVGIWGSAYSALINCLILIAQFYCSLWPIGGWTSGKERAKIFFQNYLCALIMLFIFIVHKIYYKCQTGKWWGVKALKDIDLETDRKDIDIEIVKQEIAEKKMYLDSRPWYVRQFHFWC
modifications: GST-His6 tag
notes: as for B1
B5: KCC4: yeast GST-HisX6 fusion protein on proteome chip (protein, UniProt P25389 1-1037, looked up)
Probable …: MTVANTETHSAAKPSSTIGPWKLGETLGFGSTGKVQLAQHERTGHRTAVKVISKSIFNNNGNHSNDDSVLPYNIEREIVIMKLLSHPNVLSLYDVWETNNNLYLILEYAEKGELFNLLVDHGPLPEREAINCFRQIIIGISYCHALGIVHRDLKPENLLLDSFYNIKIADFGMAALQTDADLLETSCGSPHYAAPEIVSGLPYEGFASDVWSCGVILFALLTGRLPFDEENGNVRDLLLKVQKGQFEMPNDTEISRDAQDLIGKILVVDPRQRIKIRDILSHPLLKKYQTIKDSKSIKDLPRENTYLYPLADSNNHTSASIDDSILQNLVVLWHGRHADDIVSKLKENGTNKEKILYALLYRFKLDSVRGSNKKNRNKIKKTKKNKRSSTLSSSSSLLLNNRSIQSTPRRRTSKRHSREFSSSRKRSSFLLSSNPTDSSPIPLRSSKRITHINVASANTQATPSGVPNPHKRNSKKRSSKRLSYMPNTKRSSLTSKSLSNFTNLIDDDDWEYIEKDAKRTSSNFATLIDEIFEPEKFELAKREKAELQRKVQEAKRQSVNAQKINEDEFGSEVSDGMKELKKINDKVSSPLINYEFSQQELLQDIDTLLTNRYQLSSYTRPISRLDPGLTPVTETLPNNLKEKTALLQDTEKKIIETIRRSKFLGSLLNVRGGLSPGKSELAPIEESPIVSTTPLIYNDRMEPRRISDVEVPHFTRKSKHFTTANNRRSVLSLYAKDSIKDLNEFLIKEDPDLPPQGSTDNESRSEDPEIAESITDSRNIQYDEDDSKDGDNVNNDNILSDFPQGVGISQEYDMKDKNPNQSPISKSAEPTLVVKLPSLSSFQGKNASGLGLYQREPSKVTLPSLTSNNSSVGENIEDGAEKGTESEKIAASLSDDDLKEDNDKKDNDTVNAPTTVKKPPNSVLLKKFSKGKILELEIHAKIPEKRLYEGLHKLLEGWKQYGLKNLVFNITNMIITGKLVNDSILFLRSTLFEIMVLPNGDGRSLIKFNKKTGSTKTLTKLATEIQIILQKEGVLDK
modifications: GST-HisX6 tag
notes: as for B1
B6: FUR1: yeast GST-HisX6 fusion protein on proteome chip (protein, UniProt P18562 1-216, looked up)
Uracil …: MSSEPFKNVYLLPQTNQLLGLYTIIRNKNTTRPDFIFYSDRIIRLLVEEGLNHLPVQKQIVETDTNENFEGVSFMGKICGVSIVRAGESMEQGLRDCCRSVRIGKILIQRDEETALPKLFYEKLPEDISERYVFLLDPMLATGGSAIMATEVLIKRGVKPERIYFLNLICSKEGIEKYHAAFPEVRIVTGALDRGLDENKYLVPGLGDFGDRYYCV
modifications: GST-His6 fusion tag
notes: as for B1
B7: MPS1: yeast GST-HisX6 fusion protein on proteome chip (protein, UniProt P54199 1-764, looked up)
Serine/threonine-protein …: MSTNSFHDYVDLKSRTNTRQFSDDEEFTTPPKLSNFGSALLSHTEKTSASEILSSHNNDKIANRLEEMDRSSSRSHPPPSMGNLTSGHTSTSSHSTLFGRYLRNNHQTSMTTMNTSDIEINVGNSLDKSFERIRNLRQNMKEDITAKYAERRSKRFLISNRTTKLGPAKRAMTLTNIFDEDVPNSPNQPINARETVELPLEDSHQTNFKETKRNTDYDSIDFGDLNPIQYIKKHNLPTSDLPLISQIYFDKQREENRQAALRKHSSRELLYKSRSSSSSLSSNNLLANKDNSITSNNGSQPRRKVSTGSSSSKSSIEIRRALKENIDTSNNSNFNSPIHKIYKGISRNKDSDSEKREVLRNISINANHADNLLQQENKRLKRSLDDAITNENINSKNLEVFYHRPAPKPPVTKKVEIVEPAKSASLSNNRNIITVNDSQYEKIELLGRGGSSRVYKVKGSGNRVYALKRVSFDAFDDSSIDGFKGEIELLEKLKDQKRVIQLLDYEMGDGLLYLIMECGDHDLSQILNQRSGMPLDFNFVRFYTKEMLLCIKVVHDAGIVHSDLKPANFVLVKGILKIIDFGIANAVPEHTVNIYRETQIGTPNYMAPEALVAMNYTQNSENQHEGNKWKVGRPSDMWSCGCIIYQMIYGKPPYGSFQGQNRLLAIMNPDVKIPFPEHTSNNEKIPKSAIELMKACLYRNPDKRWTVDKVLSSTFLQPFMISGSIMEDLIRNAVRYGSEKPHISQDDLNDVVDTVLRKFADYKI
modifications: GST-HisX6 tag
notes: as for B1
B8: FBP26: yeast GST-HisX6 fusion protein on proteome chip (protein, UniProt P32604 1-452, looked up)
Fructose-2,6-bisphosphatase: MGYSTISNDNDIKVCVIMVGLPARGKSFISQKIIRYLSWLSIKAKCFNVGNYRRDVSGNVPMDAEFFNFENTDNFKLRELAAQNAIKDIVNFFTKEDGSVAVFDATNSTRKRRKWLKDICEKNNIQPMFLESWSNDHELIINNAKDIGSTSPDYENSEPHVAEADFLERIRQYERFYEPLDPQKDKDMTFIKLVNIIEEVVINKIRTYLESRIVFYVMNIRPKPKYIWLSRHGESIYNVEKKIGGDSSLSERGFQYAKKLEQLVKESAGEINLTVWTSTLKRTQQTANYLPYKKLQWKALDELDAGVCDGMTYEEIEKEYPEDFKARDNDKYEYRYRGGESYRDVVIRLEPVIMELERQENVLIITHQAVLRCIYAYFMNVPQEESPWMSIPLHTLIKLEPRAYGTKVTKIKANIPAVSTYKEKGTSQVGELSQSSTKLHQLLNDSPLEDKF
modifications: GST-His6 tag
notes: as for B1

Assays:
Conditions in all cases: liposome binding signal on yeast proteome chip, Cy3-streptavidin detection
PI(3,4,5)P3 liposomes = assay: Yeast proteome chip probed with PI(3,4,5)P3 liposomes
PI(3)P liposomes = assay: Yeast proteome chip probed with PI(3)P liposomes
[1] = system: phosphatidylcholine (PC) liposomes; assay: Yeast proteome chip probed with PC liposomes
Method in brief: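 Signal comes from Cy3- or Cy5-streptavidin recognising 1% (w/w) biotin-DHPE carried in every liposome. Liposomes were PC alone or PC containing 5% (w/w) of a single phosphoinositide, applied to arrayed GST-fusion yeast proteins for 1 h at RT.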

PI(4,5)P2 liposomes = assay: Yeast proteome chip probed with PI(4,5)P2 liposomes
PI(3,4)P2 liposomes = assay: Yeast proteome chip probed with PI(3,4)P2 liposomes
PI(4)P liposomes = assay: Yeast proteome chip probed with PI(4)P liposomes

Row | Molecule | PI(3, 4, 5)P3 (PI(3,4,5)P3 liposomes) | PI(3)P (PI(3)P liposomes) | PC [1] | PI(4, 5)P2 (PI(4,5)P2 liposomes) | PI(3, 4)P2 (PI(3,4)P2 liposomes) | PI(4)P (PI(4)P liposomes)
1 | B1 | 21.49 | 1.75 | 69.85 | 28.31 | 8.63 | 57.48
2 | B2 | 30.15 | 51.00 | 119.74 | 32.01 | 29.20 | 98.64
3 | B3 | 99.11 | 33.25 | 121.50 | 63.58 | 137.98 | 52.04
4 | B4 | 68.29 | 60.50 | 83.93 | 85.79 | 62.48 | 51.39
5 | B5 | 65.47 | 33.50 | 123.26 | 67.06 | 234.84 | 84.92
6 | B6 | 72.22 | 112.25 | 95.67 | 111.70 | 210.19 | 148.94
7 | B7 | 1864.12 | 310.00 | 4374.59 | 1084.79 | 4216.40 | 6148.60
8 | B8 | 25.31 | 5.75 | 107.41 | 47.90 | 48.51 | 62.06
